Assay results taken from article PMC10957665, “The C-terminal selenenylsulfide of extracellular/non-reduced thioredoxin reductase endows this protein with selectivity to small-molecule electrophilic reagents under oxidative conditions” (Frontiers in Molecular Biosciences, 2024).
Residue numbers refer to the chain shown, from its start.

B1: Cys73Ala mutant of hTrx1 (natural protein, human, UniProt P10599 1-105, looked up)
chain: MVKQIESKTAFQEALDAAGDKLVVVDFSATWCGPCKMIKPFFHSLSEKYSNVIFLEVDVDDCQDVASECEVKAMPTFQFFKKGQKVGEFSGANKEKLEATINELV
notes: Human cytosolic thioredoxin (hTrx1) with Cys73 replaced by Ala; also called hTrx1 mutant in which Cys73 was substituted by Ala
B2: human cytosolic thioredoxin (hTrx1) (natural protein, UniProt P10599 1-105, looked up)
chain: B1 chain with A73C
notes: Human cytosolic thioredoxin (hTrx1); freshly DTT-treated, free thiol on surface Cys73; also called human cytosolic Trx; source: purified according to a previously described method (Zhai and Zhong, 2010); incubated with DTT and dialysed before use

Tests used:
[1] = target: the molecule itself; assay: cross-linking; diamide-induced covalent (disulfide/selenenylsulfide) complex: TrxR1 or a TrxR1 mutant with a 2-fold concentration of hTrx1, or one protein alone, 10 mM diamide, 30 min at room temperature; non-reducing SDS-PAGE, Coomassie stain
[2] = target: the molecule itself; assay: cross-linking; H2O2 as thiol oxidant in place of diamide; unpublished (Zhong's observation)

Protein	stoichiometry N [1]	stoichiometry N [2]
B1	2	
B2		2
